Test results as given in patent publication US20250223330A1 (OUTPACE BIO, published 2025).
Substitutions are numbered along the chain they refer to.

T1: CD25-Fc (UniProt P01589 22-213, limits assumed)
T1 construct: Bought reagent; The same stock (100 ug/mL aliquots) was used as CD25-Fc in the ELISA and as IL2Ra-Fc on ProA tips in the Octet assay; also called IL2Ra-Fc; CD25 (IL2Ra); not shown: Fc part of the bought fusion
T1 sequence (looked up): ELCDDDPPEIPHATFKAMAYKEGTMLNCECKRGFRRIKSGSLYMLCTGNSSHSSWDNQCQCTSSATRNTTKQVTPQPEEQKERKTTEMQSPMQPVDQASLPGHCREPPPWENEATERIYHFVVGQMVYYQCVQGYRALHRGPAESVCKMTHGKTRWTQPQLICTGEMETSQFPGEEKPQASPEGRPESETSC

T2: IL2Rb/g-Fc (UniProt P14784 27-239; P31785 23-262, limits assumed)
T2 construct: Captured at 12 ug/mL on ProA tips; also called IL-2/15Rβγ; IL-2Rβγ; not shown: Fc part
T2 sequence (looked up) 1: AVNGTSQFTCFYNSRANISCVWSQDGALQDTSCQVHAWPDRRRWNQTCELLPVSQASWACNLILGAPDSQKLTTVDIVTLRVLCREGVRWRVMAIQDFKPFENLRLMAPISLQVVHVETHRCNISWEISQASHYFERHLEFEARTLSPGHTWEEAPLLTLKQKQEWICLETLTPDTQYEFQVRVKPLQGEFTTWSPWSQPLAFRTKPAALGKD
T2 sequence (looked up) 2: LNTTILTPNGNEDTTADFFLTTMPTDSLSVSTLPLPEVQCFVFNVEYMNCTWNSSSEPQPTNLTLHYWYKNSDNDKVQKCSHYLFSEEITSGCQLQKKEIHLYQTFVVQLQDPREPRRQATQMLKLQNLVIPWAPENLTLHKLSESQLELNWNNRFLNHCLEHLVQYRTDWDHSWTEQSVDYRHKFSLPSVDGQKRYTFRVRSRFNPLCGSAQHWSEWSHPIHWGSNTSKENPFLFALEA

B1: Designed Cytokine No. 39 (designed binder)
chain: APTSSSTKKTQLQLEHLLLDLQMILNGINNMNADPELVEFLNRWITFCQSLIKKGSNEDLKHLQALEEELKPLEEVLNLAQSKNFHLRPRDLISNINVIVLELKGSGSGGSGNWSHPQFEK
B2: Designed Cytokine No. 40 (designed binder)
chain: B1 chain with M31G
B3: Designed Cytokine No. 153 (designed binder)
chain: APTSSSTKKTQLQLEHLLLDLQMILNGINNMNADPELVEFLNRWITFCQSIISTGSVDPEELAKELQKLEEELKPLEEVLNLAQSKNFHLRPRDLISNINVIVLELKGSGSGNWSHPQFEK
notes: also called Design 3
B4: Designed Cytokine No. 169 (designed binder)
chain: APTSSSTKKTQLQLEHLLLDLQMILNGINNMNADPELVEFLNRWITFCQSIISTGSLEDLKHLQALEEELKPLEEVLNLAQSKNFHLRPRDLISNINVIVLELKGSGSGNWSHPQFEK
notes: also called Design 1
B5: SEQ ID NO 20 (designed binder)
chain: APTSSSTKKTQLQLEHLLLDLQMIANALNKLGIESPFLNRWITFCQSVISASDDTREELKHLQALEEELKPLEEVLNLAQSKNFHLRPRDLISNINVIVLELKGS
notes: ELISA captured STII-tagged protein from supernatant; also called Designed Cytokine No. 20
B6: SEQ ID NO 35 (designed binder)
chain: APTSSSTKKTQLQLEHLLLDLQMILNGINNYKNPKLTEIDPKLVEFLNRWITFCQTIINGGESATLKHLQALEEELKPLEEVLNLAQSKNFHLRPRDLISNINVIVLELKGS
notes: ELISA captured STII-tagged protein from supernatant; also called Designed Cytokine No. 35
B7: SEQ ID NO 36 (designed binder)
chain: B6 chain with T56S, G61D, A64F, T65S
notes: ELISA captured STII-tagged protein from supernatant; also called Designed Cytokine No. 36
B8: SEQ ID NO 24 (designed binder)
chain: APTSSSTKKTQLQLEHLELDLQMILNLAEVDPTMKEFLNRWITEAQSSNATLKSLQALEEELKPLEEVLNLAQSKNFHLRPRDLISNINVIVLELKGS
notes: ELISA captured STII-tagged protein from supernatant; also called Designed Cytokine No. 24
B9: SEQ ID NO 33 (designed binder)
chain: APTSSSTKKTQLQAEHLLLDLQMILNGINNYKNPKLTRMLTFGGTATIVEFLNRWITFCESGADEEAAKSLQALEEELKPLEEVLNLAQSKNFHLRPRDLISNINVIVLELKGS
notes: ELISA captured STII-tagged protein from supernatant; also called Designed Cytokine No. 33
B10: SEQ ID NO 21 (designed binder)
chain: APTSSSTKKTQLQLEHLLLDLQMILNALKKLNINSPMQEFLNRWITFCESNTEDALKHLQALEEELKPLEEVLNLAQSKNFHLRPRDLISNINVIVLELKGS
notes: ELISA captured STII-tagged protein from supernatant; also called Designed Cytokine No. 21
B11: SEQ ID NO 30 (designed binder)
chain: B10 chain with E65R, L75R
notes: ELISA captured STII-tagged protein from supernatant; also called Designed Cytokine No. 30
B12: SEQ ID NO 34 (designed binder)
chain: APTSSSTKKTQLQLEHLLLDLQMILNGINNYKNPKLTEIDPKLVEFLNRWITFCQSAIKSGSNTAKELQALEEELKPLEEVLNLAQSKNFHLRPRDLISNINVIVLELAGS
notes: ELISA captured STII-tagged protein from supernatant; also called Designed Cytokine No. 34
B13: SEQ ID NO 38 (designed binder)
chain: APTSSSTKKTQLQLEHLLLDLQMILNGINNMNADPELVEFLNRWITFCQTAISTGKDNLKHLQALEEELKPLEEVLNLAQSKNFHLRPRDLISNINVIVLELKGS
notes: ELISA captured STII-tagged protein from supernatant; also called Designed Cytokine No. 38
B14: SEQ ID NO 28 (designed binder)
chain: APTSSSTKKTQLQLEHLLLDLQMILNGAEVDPKIKEFLNRWITFCQSVIKANKDTREELKHLQALEERLKPLEEVLNRAQSKNFHLRPRDLISNINVIVLELKGS
notes: ELISA captured STII-tagged protein from supernatant; also called Designed Cytokine No. 28
B15: SEQ ID NO 27 (designed binder)
chain: APTSSSTKKTQLQLEHLLLDLQMILNGINNMNADPELVEFLNRWITFCQSLIKKGSNEDLKHLQALEERLKPLEEVLNRAQSKNFHLRPRDLISNINVIVLELKGS
notes: ELISA captured STII-tagged protein from supernatant; also called Designed Cytokine No. 27
B16: SEQ ID NO 32 (designed binder)
chain: APTSSSTKKTQLQLEHLLLDLQMILNGINNYKNPKLTRMLTFGGTATIVEFLNRWITACQREADPEALQALEEELKPLEEVLNLAQSKNFHLRPRDLISNINVIVLELMGS
notes: ELISA captured STII-tagged protein from supernatant; also called Designed Cytokine No. 32
B17: SEQ ID NO 37 (designed binder)
chain: APTSSSTKKTQLQLEHLLLDLQMILNGINNYKNPKLTKLDPSLVEFLNRWITFCQSATSDPDLLKHLQALEEELKPLEEVLNLAQSKNFHLRPRDLISNINVIVLELKGS
notes: ELISA captured STII-tagged protein from supernatant; also called Designed Cytokine No. 37
B18: SEQ ID NO 29 (designed binder)
chain: APTSSSTKKTQLQLEHLLLDLQMILNALNKLNINDHIVEFLNRWITFCQSATSDPDLLKHLQALEERLKPLEEVLNRAQSKNFHLRPRDLISNINVIVLELKGS
notes: ELISA captured STII-tagged protein from supernatant; also called Designed Cytokine No. 29
B19: SEQ ID NO 22 (designed binder)
chain: APTSSSTKKTQLQLEHLLLDLQMILNLAEVDPTMKEFLNRWITFCESNSESALKHLQALEEELKPLEEVLNLAQSKNFHLRPRDLISNINVIVLELKGS
notes: ELISA captured STII-tagged protein from supernatant; also called Designed Cytokine No. 22
B20: SEQ ID NO 17 (designed binder)
chain: APTSSSTKKTQLQLEHLLLDLQMILNGMNNGNADPELVEFLNRWITFAQDGSADLKHLQALEEELKPLEEVLNLAQSKNFHLRPRDLISNINVIVLELKGS
notes: ELISA captured STII-tagged protein from supernatant; also called Designed Cytokine No. 17
B21: SEQ ID NO 18 (designed binder)
chain: B20 chain with M28I, G31M
notes: ELISA captured STII-tagged protein from supernatant; also called Designed Cytokine No. 18
B22: SEQ ID NO 26 (designed binder)
chain: APTSSSTKKTQLQLEHLLLDLQMILNFPVDSEMVEFLNRWITFAEKGTEDALKELQALEEELKPLEEVLNLAQSKNFHLRPRDLISNINVIVLELKGS
notes: ELISA captured STII-tagged protein from supernatant; also called Designed Cytokine No. 26
B23: SEQ ID NO 23 (designed binder)
chain: B22 chain with E45Q, T48D, D50S, E54H
notes: ELISA captured STII-tagged protein from supernatant; also called Designed Cytokine No. 23
B24: SEQ ID NO 31 (designed binder)
chain: B22 chain with E61R, L71R
notes: ELISA captured STII-tagged protein from supernatant; also called Designed Cytokine No. 31
B25: SEQ ID NO 25 (designed binder)
chain: B22 chain with L52N
notes: ELISA captured STII-tagged protein from supernatant; also called Designed Cytokine No. 25
B26: SEQ ID NO 19 (designed binder)
chain: APTSSSTKKTQLQLEHLLLDLQMIANALNKLGIESPFLNRWITFCQSNHEDAAKHLQALEEELKPLEEVLNLAQSKNFHLRPRDLISNINVIVLELMGS
notes: ELISA captured STII-tagged protein from supernatant; also called Designed Cytokine No. 19

biological target: CD25-Fc (UniProt P01589); assay: BLI; conditions: ligand

| Molecule | Kd [nM] |
| --- | --- |
| WT IL-2 (from UniProt P60568 21-153) | 20 |

biological target: T1, CD25-Fc; assay: ELISA, STII-tagged cytokine captured on Strep-Tactin plate, CD25-Fc detected; conditions: not given

| Molecule | binding result |
| --- | --- |
| B1 | no binding |
| B2 | no binding |

biological target: T2, IL2Rb/g-Fc; assay: Octet (BLI), IL2Rb/g-Fc captured on ProA tips, cytokine in solution; conditions: not given

| Molecule | Kd [nM] |
| --- | --- |
| B3 | 3.9 |
| B4 | ~1.6 |

biological target: T1, CD25-Fc; assay: ELISA, STII-tagged cytokine captured on Strep-Tactin plate, CD25-Fc detected (FIG. 5A); conditions: not given

| Molecule | binding result |
| --- | --- |
| B5 | no binding |
| B6 | no binding |
| B7 | no binding |
| B8 | no binding |
| B9 | no binding |
| B10 | no binding |
| B11 | no binding |
| B12 | no binding |
| B13 | no binding |
| B14 | no binding |
| B15 | no binding |
| B16 | no binding |
| B17 | no binding |
| B18 | no binding |
| B19 | no binding |
| B20 | no binding |
| B21 | no binding |
| B22 | no binding |
| B23 | no binding |
| B24 | no binding |
| B25 | no binding |
| B26 | no binding |
